{"source": "the nanobody polyreactivity screen of Harvey et al. (2022)", "data": [{"experiment": "yeast display, Sf9 membrane polyspecificity reagent, FACS + sequencing; frameworks hold sequencing errors", "how_it_was_run": "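A nanobody's polyreactivity label depends on the gate it was sorted from. Yeast display cells were stained with 10% biotinylated, detergent-solubilized Sf9 membrane reagent for 1 hour at 4 °C, enriched on streptavidin microbeads and sorted by FACS. The low and high (top ~1%) gates were set on anti-HA fluorescence for expression and streptavidin fluorescence for reagent binding.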", "values": [{"sequence": "QVQLEESGGGLVQAGGSLRLSCAASGRTFSIYAMGWYRQAPGKERELVASITGRGTRTYYADSVKGRFTISRDNAKNTVYLQMNSLKPEDTAVYYCNARGKVQSSYDDDYWGQGTQVTVSS", "polyreactivity (PSR sort gate)": "high polyreactivity"}, {"sequence": "QVQLEESGGGLVQAGGSLRLSCAASGRTFVPYVMGWYRQAPGKEMELVATINWSGGSTYYADSVKGRFTISRDNAKNTVYLQMNSLKPEDTADYYCAARYYSDWFYYLFRYDYWGQGTQVTVSS", "polyreactivity (PSR sort gate)": "low polyreactivity"}, {"sequence": "QVQLEESGGGLVQAGGSLRLSCAASGRTFYRSAMGWYRPEPGKERELVAAITWSGGSTYYAVSVKGRFTTSRDNAKNTVYLQMNSLKPEDTAVYYCARRLYPYRPTAYDYWGQGTQVTVSS", "polyreactivity (PSR sort gate)": "low polyreactivity"}, {"sequence": "QVQLEESGGGLVQAGGSLRLSCAASGRTFYSSAMGWYRQPPGKERQLVAAITISGGRTFYADSVKGRSTISRDNAKNTVYLQMNSLKPEDTAVYYCATDTYEPFHFEDDYWGQGTQVTVST", "polyreactivity (PSR sort gate)": "low polyreactivity"}, {"sequence": "QVQLEESGGGLVQAGGSLRLSCAASGRTIIINTMGWYRQAPGKERELVAAISKNGATTNYADSLKGRFTISRDNAKNTVYLQMNSLKPEDTSVYYCNARYSGYLRLDYWGQGTQVNVSS", "polyreactivity (PSR sort gate)": "low polyreactivity"}, {"sequence": "QVQLEESGGGLVQAGGSLRLSCAASGRTSYGYAMGWYRQAPGKERELVAAISSGGRTNYADSVKGRFTISRDNAKNTVYLQMNSLKPEDTAVYYCAKRYRYRPSYDYWGQGTQVTVSS", "polyreactivity (PSR sort gate)": "high polyreactivity"}, {"sequence": "QVQLEESGGGLVQAGGSLRLSCAASGRTTYWYAMGWYRQAPGKERELVADISWSGGSTYYADSVKGRFTISRDNAKNTVYLQMNSLKPEDPAVYYCNAAEQKYSIYYAFDTGPYDYWGQGTQVTVSS", "polyreactivity (PSR sort gate)": "low polyreactivity"}, {"sequence": "QVQLEESGGGLVQAGGSLRLSCAASGRTYRYAMGWYRQSPGKERELVAAIRWSGGSTYYADSVKGRFTISRDNAKNTVYLQMNSLKPEDTAVYYCAADSYATRYYYWGQGTQVTVSS", "polyreactivity (PSR sort gate)": "high polyreactivity"}, {"sequence": "QVQLEESGGGLVQAGGSLRLSCAASGSICGVYVMGWYRQAPGKERELVASISRGTTTNYADSVKGRFTISRDNAKNTVYLQMNSLKPEDTAVYYCNADIRGFFFQYDYWGQGTQVTVSS", "polyreactivity (PSR sort gate)": "low polyreactivity"}, {"sequence": "QVQLEESGGGLVQAGGSLRLSCAASGSICWLYAMGWYRQAPGKERELVAAIDSGDSTKYADSVKGRFTISRDNAKNTVYLQMNSLIPEDTAVYYCNASRRYHVRAPYDYWGQGTQVTVSS", "polyreactivity (PSR sort gate)": "low polyreactivity"}, {"sequence": "QVQLEESGGGLVQAGGSLRLSCAASGSICYYYARGWYRQAPGKERELVASITSGGRTYYADSVKGRFTISRDNAKNTVYLQMNSLKPEDTAVYYCAAQRIWLGDYWGQGTQVTVSS", "polyreactivity (PSR sort gate)": "high polyreactivity"}, {"sequence": "QVQLEESGGGLVQAGGSLRLSCAASGSIFARNAMGWYRQAPGNERELVAAISTGGGSTYYADSVKGRFTISRDNAKNSVYLQMKSLKPEDTAVYYCNAGDTQIRFYYWGQGTQVSVSS", "polyreactivity (PSR sort gate)": "low polyreactivity"}, {"sequence": "QVQLEESGGGLVQAGGSLRLSCAASGSIFGAYALGWYRQAPGKERELVAAISSSVDRTYYADSVKGRFTISRDNAKNTVYLQMNSLKPEDTAVYYCAARWGTRDRTKYYYWGQGTQVTVSS", "polyreactivity (PSR sort gate)": "high polyreactivity"}, {"sequence": "QVQLEESGGGLVQAGGSLRLSCAASGSIFGFYAMGWYRQAPGKERELVAAISQRGGNTYYADSVKGRFTISRDNAKNTVYLQMNSLKPEDTAVYYCATDKHPYKRHWYYTYDYWGQGTQLTVSS", "polyreactivity (PSR sort gate)": "high polyreactivity"}, {"sequence": "QVQLEESGGGLVQAGGSLRLSCAASGSIFITYAMGWYRQAPGKERELVAAIRDSGDRTYYADSVKGRFTISRDTAKNTVYLQMNSLKPEDTGVYYCNARWQETLKYDYWGQGTLVTVSS", "polyreactivity (PSR sort gate)": "low polyreactivity"}, {"sequence": "QVQLEESGGGLVQAGGSLRLSCAASGSIFKRKAMGWSRQAPGKERELVASISSGGSTHYADSVKGRFTISRDNAKNTVYLQMNSLKREDTAVYYCAATSIRWSVGSFRRDYWGQGTQVTVSS", "polyreactivity (PSR sort gate)": "low polyreactivity"}, {"sequence": "QVQLEESGGGLVQAGGSLRLSCAASGSIFLANAMGWYRQAPGKERELVATISSGGSTYYADSVKGRFTISRDNAKNTVYLQMNSLKPEDTAVYYCAKRRAYTKKLYYWGQGTQVTVSS", "polyreactivity (PSR sort gate)": "high polyreactivity"}, {"sequence": "QVQLEESGGGLVQAGGSLRLSCAASGSIFPFYAMGRYRQAPGKERELVAAISDRGGSTYYADSVKGRFTISRDNAKNTVYLQMNSLKPEDTAVYYCAKGGGVSQGYTDEYDYWGQGTQVTVSS", "polyreactivity (PSR sort gate)": "low polyreactivity"}, {"sequence": "QVQLEESGGGLVQAGGSLRLSCAASGSIFSGYTMGWYRQAPGKERELVAGISYRGGSTYYADSVKGRFTISRDNAKNTVYLQMNSLKPEDTAVYYCAARVWWRYEYWGQGTQVTVSS", "polyreactivity (PSR sort gate)": "high polyreactivity"}, {"sequence": "QVQLEESGGGLVQAGGSLRLSCAASGSIFSYNAMGWYRQAPGKERELVAAISRGSGSTYYADSVKGRFTISRDNAKNTVYLQMNSLKPEDTAVYYCATRSIRVLPDVYRKADDYWGQGTQVTVSS", "polyreactivity (PSR sort gate)": "low polyreactivity"}, {"sequence": "QVQLEESGGGLVQAGGSLRLSCAASGSIFVGNVMGWYRQAPGKERELVAAITYSGGSTYYADSVKGRFTISRDNAKNTVYLQMNSLKPEDTAVYYCAKPSRVSIGYDYWGQGTQVTVSS", "polyreactivity (PSR sort gate)": "low polyreactivity"}, {"sequence": "QVQLEESGGGLVQAGGSLRLSCAASGSIFVYYGMGWYRQAPGKERELVAAISSGGSTHYADSVKGRFTISRDNAKNTVYLQMNSLKPEDTAVYYCNARAYGNGLGTGYFGKHRYDYWGQGTQVTVSS", "polyreactivity (PSR sort gate)": "low polyreactivity"}, {"sequence": "QVQLEESGGGLVQAGGSLRLSCAASGSIFWGYAIGWYRQAPGKERELVAAISNTGSTNYADSVKGRFTISRDNAKNTVYLQMNSLKPEDTAVYYCNASYTYGEMDYWGQGTQVTVSS", "polyreactivity (PSR sort gate)": "low polyreactivity"}, {"sequence": "QVQLEESGGGLVQAGGSLRLSCAASGSIFYLNDMGWYRQAPGKEREFVAAIDSRGTSTYYADSVKGRFTISRDNAKNTVYLQMNSLKPEDTAVYYCAADSYALEYDYWGQGTQVTVSS", "polyreactivity (PSR sort gate)": "low polyreactivity"}, {"sequence": "QVQLEESGGGLVQAGGSLRLSCAASGSIFYSYAMGWYRQAPGNERELVAAITRGGSTYYADSVKGRFTISRDNAKNTVYLQMNSLKPEDTAVYYCAADSQYGWPEYEYDYWGQGTQVTVSS", "polyreactivity (PSR sort gate)": "low polyreactivity"}, {"sequence": "QVQLEESGGGLVQAGGSLRLSCAASGSILPDYVMGWYRQAPGKERELVAAISWSDGSTYYADSVKGRFTISRDNAKNTVYLQRNSLKPEDTAVYYCAAEVWDYYYGCYADDYWGQGTQVTVSS", "polyreactivity (PSR sort gate)": "low polyreactivity"}, {"sequence": "QVQLEESGGGLVQAGGSLRLSCAASGSILRRYAMGWYRQAPGKEREFVAAMSYSGSRTYYADSVKGRFTISRDNAKYTVYLQMYSLKPEDTAVYYCAADSYGSRYEYWGLGTQVTVSS", "polyreactivity (PSR sort gate)": "high polyreactivity"}, {"sequence": "QVQLEESGGGLVQAGGSLRLSCAASGSILTDNAMGWYRQAPGKERELVAANSYSGASTYYADSVKGRFTISRDNAKNTVYLQMNSLKPEDTAVFYCAARYVSATPQLKARVRYYYWGQGTQVTVSS", "polyreactivity (PSR sort gate)": "high polyreactivity"}, {"sequence": "QVQLEESGGGLVQAGGSLRLSCAASGSILVIYTMGWYRQAPGKERELVAGINYSGGRTYYADSVKGRFTISRDNAKNTVYLQMNSLKPEDTAVYYCSADYYFLDWYDYWGQGTQVTVSS", "polyreactivity (PSR sort gate)": "low polyreactivity"}, {"sequence": "QVQLEESGGGLVQAGGSLRLSCAASGSILVKYAMGRYRQAPGKERELVASITSTGNTYYADSVKGRFTISRDNAKNTVYLQMNSLKPEDTAVYYCAADAAFTYVYFQSDGYNYWGQGTQVTVSS", "polyreactivity (PSR sort gate)": "low polyreactivity"}, {"sequence": "QVQLEESGGGLVQAGGSLRLSCAASGSILVRYAMGWYRQAPGKERELVAAITYSVGSTYYADSVKGRFTISRDNAKNTVYLQMNSLKPEDTAVYYCAASGGTEVLLMDYWGQGTQVTVSS", "polyreactivity (PSR sort gate)": "low polyreactivity"}, {"sequence": "QVQLEESGGGLVQAGGSLRLSCAASGSISSFNTMGWYRQAPGKERELVAAITRDGSTYYADSVKGRFTISRDNAKNTVYLQMNSLKPEDTAVYYCAARGWYATWLYYYWGQGTQVTVSS", "polyreactivity (PSR sort gate)": "high polyreactivity"}, {"sequence": "QVQLEESGGGLVQAGGSLRLSCAASGSTFDVYAMGWYRQAPGKERELVAAIRSSGGSTFYADSVKGRFTISRDNAKNIVYLQMNSLKPEDTAVYYCAARSFVVSGYNKYYEYGYWGQGTQVTVSS", "polyreactivity (PSR sort gate)": "low polyreactivity"}, {"sequence": "QVQLEESGGGLVQAGGSLRLSCAASGSTFFIYAMGWYRQAPGKERELVAVIRNIDVRTYYADSVKGRFTISRDNAKNTVYLQMNSLKPEDTAVYYCAADELLDESVDMYYWGQGTQVTVSS", "polyreactivity (PSR sort gate)": "low polyreactivity"}, {"sequence": "QVQLEESGGGLVQAGGSLRLSCAASGSTFGKNAMGWYRQAPGKERELVASITWRGGSTYYADSVKGRFTISRDNAKNTVYLQMNSLKPEDTAVYYCAADYVVSAFDYWGQGTQVTVSS", "polyreactivity (PSR sort gate)": "low polyreactivity"}, {"sequence": "QVQLEESGGGLVQAGGSLRLSCAASGSTFKTYASGWYRQAPGKERELVAAISWSGGSTYYAESVKGRFTISRDNAKNTVYLQMNSLKPEDTAVYYCNAGWGYPSPWFIGEYWGQGTQVTVSS", "polyreactivity (PSR sort gate)": "low polyreactivity"}, {"sequence": "QVQLEESGGGLVQAGGSLRLSCAASGSTFRDYAMGWYRQAPGKQRELVAAITSGGSTNYADSVKGRFTISRDNAKNTVYLQMNSLKPEDTAVYYCNARYAGWYTPWGRQSVYSDDYWGQGTQVTVSS", "polyreactivity (PSR sort gate)": "low polyreactivity"}, {"sequence": "QVQLEESGGGLVQAGGSLRLSCAASGSTFSYYAKGWYRQAPGKERELVAVISRGGSTNYADSVKGRFTISRDNAKNTVYLQMNSLKPEDTAVYYCAADAIPDSVRYWEYDYWGQGTQVTVSS", "polyreactivity (PSR sort gate)": "low polyreactivity"}, {"sequence": "QVQLEESGGGLVQAGGSLRLSCAASGSTFTPNAMGWYRQAPGKEREFVAGIDWNDGSTYYADSVKGRFTISRDNAKNTVYLQMNSLQPEDTEVYYCNAQWVSWWSLYDYWGQGTQVTVSS", "polyreactivity (PSR sort gate)": "high polyreactivity"}, {"sequence": "QVQLEESGGGLVQAGGSLRLSCAASGSTFTRYAMGWYRQAPGKERELVAAISRGGSTNYADSVKGRFTISRDNAKNTVYLQMNSLKPEDTAVYYCAARSWYLRYDYWGQGTQVTVSS", "polyreactivity (PSR sort gate)": "high polyreactivity"}, {"sequence": "QVQLEESGGGLVQAGGSLRLSCAASGSTFVYNAMGWYRQAPGKEMELVAAISRRGGSTYYADSVKGRFTISRDNAKNTVYLQMNSLKPEDTAVYYCAADPSYYTYFSFDLSESDYWGQGTQVTVSS", "polyreactivity (PSR sort gate)": "low polyreactivity"}, {"sequence": "QVQLEESGGGLVQAGGSLRLSCAASGSTFYINAMGWYRQAPGKERELVAAITWRGGRTYYADSVKGRFTISRDNAKNTVYLQLNSLKPEDTAVYYCAAKVRWHRGTSSYYYWGQGTQVTVSS", "polyreactivity (PSR sort gate)": "high polyreactivity"}, {"sequence": "QVQLEESGGGLVQAGGSLRLSCAASGSTYWLYPMGGYRQATGKERELVATISERGGSTYYADSVKGRFTISRDNAKNTVYLQMNSLKPEDTAVYYCAAHVYGSWPDYDYWGQGTQVSVSS", "polyreactivity (PSR sort gate)": "low polyreactivity"}]}]}
